Assay results as given in patent publication US20260176319A1 (KALLYOPE, published 2026).
Starred links: 1 amine or outer side, 2 acyl side, 3 side chain; linkers in the order of their positions; H or OH if unused. Non-standard residues stand in square brackets, D forms with d. *: point of attachment. Trp(7-F) = N[C@@H](Cc1c[nH]c2c(F)cccc12)C(=O)O; Trp(7-Me) = Cc1cccc2c(C[C@H](N)C(=O)O)c[nH]c12; C18 diacid = O=C(O)CCCCCCCCCCCCCCCCC(=O)*; γGlu = O=C(O)[C@H](CCC(=O)[*:2])N[*:1]; 2Nal = N[C@@H](Cc1ccc2ccccc2c1)C(=O)O; Nle = CCCC[C@H](N)C(=O)O; AEEA = NCCOCCOCC(=O)O; Sar = CNCC(=O)O

B1: Peptide 103 (peptide)
peptide: {C18 diacid}-[γGlu][AEEA][AEEA][AEEA][AEEA]GNH[Trp(7-Me)]AV[dA]HL[Nle][Sar]-NH2
SMILES: CCCC[C@H](NC(=O)[C@H](CC(C)C)NC(=O)[C@H](Cc1c[nH]cn1)NC(=O)[C@@H](C)NC(=O)[C@@H](NC(=O)[C@H](C)NC(=O)[C@H](Cc1c[nH]c2c(C)cccc12)NC(=O)[C@H](Cc1c[nH]cn1)NC(=O)[C@H](CC(N)=O)NC(=O)CNC(=O)COCCOCCNC(=O)COCCOCCNC(=O)COCCOCCNC(=O)COCCOCCNC(=O)CC[C@H](NC(=O)CCCCCCCCCCCCCCCCC(=O)O)C(=O)O)C(C)C)C(=O)N(C)CC(N)=O
B2: Peptide 108 (peptide)
peptide: {C18 diacid}-[γGlu][AEEA][AEEA]GNHRAV[dA]HL[Nle]-NH2
SMILES: CCCC[C@H](NC(=O)[C@H](CC(C)C)NC(=O)[C@H](Cc1c[nH]cn1)NC(=O)[C@@H](C)NC(=O)[C@@H](NC(=O)[C@H](C)NC(=O)[C@H](CCCNC(=N)N)NC(=O)[C@H](Cc1c[nH]cn1)NC(=O)[C@H](CC(N)=O)NC(=O)CNC(=O)COCCOCCNC(=O)COCCOCCNC(=O)CC[C@H](NC(=O)CCCCCCCCCCCCCCCCC(=O)O)C(=O)O)C(C)C)C(N)=O
B3: Peptide 102 (peptide)
peptide: {C18 diacid}-[γGlu][AEEA][AEEA]GNH[Trp(7-F)]AV[dA]HL[Nle][Sar]-NH2
SMILES: CCCC[C@H](NC(=O)[C@H](CC(C)C)NC(=O)[C@H](Cc1c[nH]cn1)NC(=O)[C@@H](C)NC(=O)[C@@H](NC(=O)[C@H](C)NC(=O)[C@H](Cc1c[nH]c2c(F)cccc12)NC(=O)[C@H](Cc1c[nH]cn1)NC(=O)[C@H](CC(N)=O)NC(=O)CNC(=O)COCCOCCNC(=O)COCCOCCNC(=O)CC[C@H](NC(=O)CCCCCCCCCCCCCCCCC(=O)O)C(=O)O)C(C)C)C(=O)N(C)CC(N)=O
B4: Peptide 100 (peptide)
peptide: {C18 diacid}-[γGlu][AEEA][AEEA]RNHWAV[dA]HL[Nle][Sar]-NH2
SMILES: CCCC[C@H](NC(=O)[C@H](CC(C)C)NC(=O)[C@H](Cc1c[nH]cn1)NC(=O)[C@@H](C)NC(=O)[C@@H](NC(=O)[C@H](C)NC(=O)[C@H](Cc1c[nH]c2ccccc12)NC(=O)[C@H](Cc1c[nH]cn1)NC(=O)[C@H](CC(N)=O)NC(=O)[C@H](CCCNC(=N)N)NC(=O)COCCOCCNC(=O)COCCOCCNC(=O)CC[C@H](NC(=O)CCCCCCCCCCCCCCCCC(=O)O)C(=O)O)C(C)C)C(=O)N(C)CC(N)=O
B5: Peptide 105 (peptide)
peptide: {C18 diacid}-[γGlu][AEEA][AEEA]GNH[2Nal]AV[dA]HL[Nle]-NH2
SMILES: CCCC[C@H](NC(=O)[C@H](CC(C)C)NC(=O)[C@H](Cc1c[nH]cn1)NC(=O)[C@@H](C)NC(=O)[C@@H](NC(=O)[C@H](C)NC(=O)[C@H](Cc1ccc2ccccc2c1)NC(=O)[C@H](Cc1c[nH]cn1)NC(=O)[C@H](CC(N)=O)NC(=O)CNC(=O)COCCOCCNC(=O)COCCOCCNC(=O)CC[C@H](NC(=O)CCCCCCCCCCCCCCCCC(=O)O)C(=O)O)C(C)C)C(N)=O
B6: Peptide 106 (peptide)
peptide: {C18 diacid}-[γGlu][AEEA][AEEA]GNHW[dA]V[dA]HL[Nle]-NH2
SMILES: CCCC[C@H](NC(=O)[C@H](CC(C)C)NC(=O)[C@H](Cc1c[nH]cn1)NC(=O)[C@@H](C)NC(=O)[C@@H](NC(=O)[C@@H](C)NC(=O)[C@H](Cc1c[nH]c2ccccc12)NC(=O)[C@H](Cc1c[nH]cn1)NC(=O)[C@H](CC(N)=O)NC(=O)CNC(=O)COCCOCCNC(=O)COCCOCCNC(=O)CC[C@H](NC(=O)CCCCCCCCCCCCCCCCC(=O)O)C(=O)O)C(C)C)C(N)=O
B7: Peptide 104 (peptide)
peptide: {C18 diacid}-[γGlu][AEEA][AEEA]GNH[Trp(7-Me)]AV[dA]HL[Nle][Sar]-NH2
SMILES: CCCC[C@H](NC(=O)[C@H](CC(C)C)NC(=O)[C@H](Cc1c[nH]cn1)NC(=O)[C@@H](C)NC(=O)[C@@H](NC(=O)[C@H](C)NC(=O)[C@H](Cc1c[nH]c2c(C)cccc12)NC(=O)[C@H](Cc1c[nH]cn1)NC(=O)[C@H](CC(N)=O)NC(=O)CNC(=O)COCCOCCNC(=O)COCCOCCNC(=O)CC[C@H](NC(=O)CCCCCCCCCCCCCCCCC(=O)O)C(=O)O)C(C)C)C(=O)N(C)CC(N)=O
B8: Peptide 107 (peptide)
peptide: {C18 diacid}-[γGlu][AEEA][AEEA]GNHHAV[dA]HL[Nle]-NH2
SMILES: CCCC[C@H](NC(=O)[C@H](CC(C)C)NC(=O)[C@H](Cc1c[nH]cn1)NC(=O)[C@@H](C)NC(=O)[C@@H](NC(=O)[C@H](C)NC(=O)[C@H](Cc1c[nH]cn1)NC(=O)[C@H](Cc1c[nH]cn1)NC(=O)[C@H](CC(N)=O)NC(=O)CNC(=O)COCCOCCNC(=O)COCCOCCNC(=O)CC[C@H](NC(=O)CCCCCCCCCCCCCCCCC(=O)O)C(=O)O)C(C)C)C(N)=O
B9: Peptide 110 (peptide)
peptide: {C18 diacid}-[γGlu][AEEA][AEEA][AEEA][AEEA]GNH[Trp(7-F)]AV[dA]HL[Nle]-NH2
SMILES: CCCC[C@H](NC(=O)[C@H](CC(C)C)NC(=O)[C@H](Cc1c[nH]cn1)NC(=O)[C@@H](C)NC(=O)[C@@H](NC(=O)[C@H](C)NC(=O)[C@H](Cc1c[nH]c2c(F)cccc12)NC(=O)[C@H](Cc1c[nH]cn1)NC(=O)[C@H](CC(N)=O)NC(=O)CNC(=O)COCCOCCNC(=O)COCCOCCNC(=O)COCCOCCNC(=O)COCCOCCNC(=O)CC[C@H](NC(=O)CCCCCCCCCCCCCCCCC(=O)O)C(=O)O)C(C)C)C(N)=O
B10: Peptide 101 (peptide)
peptide: {C18 diacid}-[γGlu][AEEA][AEEA][AEEA][AEEA]GNH[Trp(7-F)]AV[dA]HL[Nle][Sar]-NH2
SMILES: CCCC[C@H](NC(=O)[C@H](CC(C)C)NC(=O)[C@H](Cc1c[nH]cn1)NC(=O)[C@@H](C)NC(=O)[C@@H](NC(=O)[C@H](C)NC(=O)[C@H](Cc1c[nH]c2c(F)cccc12)NC(=O)[C@H](Cc1c[nH]cn1)NC(=O)[C@H](CC(N)=O)NC(=O)CNC(=O)COCCOCCNC(=O)COCCOCCNC(=O)COCCOCCNC(=O)COCCOCCNC(=O)CC[C@H](NC(=O)CCCCCCCCCCCCCCCCC(=O)O)C(=O)O)C(C)C)C(=O)N(C)CC(N)=O
B11: Peptide 109 (peptide)
peptide: {C18 diacid}-[γGlu][AEEA][AEEA][AEEA][AEEA]GRH[Trp(7-F)]AV[dA]HL[Nle]-NH2
SMILES: CCCC[C@H](NC(=O)[C@H](CC(C)C)NC(=O)[C@H](Cc1c[nH]cn1)NC(=O)[C@@H](C)NC(=O)[C@@H](NC(=O)[C@H](C)NC(=O)[C@H](Cc1c[nH]c2c(F)cccc12)NC(=O)[C@H](Cc1c[nH]cn1)NC(=O)[C@H](CCCNC(=N)N)NC(=O)CNC(=O)COCCOCCNC(=O)COCCOCCNC(=O)COCCOCCNC(=O)COCCOCCNC(=O)CC[C@H](NC(=O)CCCCCCCCCCCCCCCCC(=O)O)C(=O)O)C(C)C)C(N)=O

Biological target: human GRP receptor (human, UniProt P30550 1-384)
Experiment: cell-based or functional assay

Sequence of human GRP receptor (P30550 whole entry): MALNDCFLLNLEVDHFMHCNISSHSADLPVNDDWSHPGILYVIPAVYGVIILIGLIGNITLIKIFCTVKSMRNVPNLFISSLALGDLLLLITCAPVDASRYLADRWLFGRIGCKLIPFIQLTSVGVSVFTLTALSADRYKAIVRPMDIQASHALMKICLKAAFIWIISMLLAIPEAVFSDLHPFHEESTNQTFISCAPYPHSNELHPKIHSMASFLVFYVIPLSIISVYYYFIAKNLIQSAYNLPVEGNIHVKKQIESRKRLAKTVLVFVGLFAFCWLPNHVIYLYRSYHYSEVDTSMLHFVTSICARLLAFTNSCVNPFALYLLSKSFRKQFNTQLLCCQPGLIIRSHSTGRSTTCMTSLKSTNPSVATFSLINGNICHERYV

| Binder | hIP1 GRPR EC50 [nM] |
| --- | --- |
| B1 | 345 |
| EXXGNHWAVGHLM (Palmitoyl-D-γGlu-OEG-OEG-Gly-Asn-His-Trp-Ala-Val-Gly-His-Leu-Met-NH2) [Peptide 8] | 1.7 |
| B2 | > 10000 |
| B3 | 181 |
| B4 | 99.9 |
| B5 | 232 |
| B6 | 467 |
| B7 | 221 |
| B8 | > 10000 |
| B9 | 12.4 |
| B10 | 352 |
| B11 | 18.7 |
